For experiment [1], the target named is T1, recombinant His-tagged insect-cell expressed CCR5, detergent-solubilised (UniProt P51681 1-352). Put plainly: SPR; 1:1 binding model. Background: Surface plasmon resonance follows binding to a sensor surface in real time, without labels.
Experiment [2] addresses T1, recombinant His-tagged insect-cell …. Put plainly: SPR; two binding site model, KD1.
For experiment [3] the target is unchanged. Put plainly: SPR; two binding site model, KD2 (second site).

T1 sequence (P51681 whole entry): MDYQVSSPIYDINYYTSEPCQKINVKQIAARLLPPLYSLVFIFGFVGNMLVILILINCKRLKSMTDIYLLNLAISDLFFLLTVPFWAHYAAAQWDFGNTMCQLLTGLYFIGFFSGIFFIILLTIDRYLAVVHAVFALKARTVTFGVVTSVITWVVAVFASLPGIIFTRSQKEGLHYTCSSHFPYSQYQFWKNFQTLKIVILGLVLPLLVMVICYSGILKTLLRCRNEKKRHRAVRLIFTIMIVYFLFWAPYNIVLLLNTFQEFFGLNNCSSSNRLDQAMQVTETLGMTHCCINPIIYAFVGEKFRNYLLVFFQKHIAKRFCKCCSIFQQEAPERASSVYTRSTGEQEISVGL

B1: visfatin (recombinant) (natural protein)
chain: MNPAAEAEFNILLATDSYKVTHYKQYPPNTSKVYSYFECREKKTENSKLRKVKYEETVFYGLQYILNKYLKGKVVTKEKIQEAKDVYKEHFQDDVFNEKGWNYILEKYDGHLPIEIKAVPEGFVIPRGNVLFTVENTDPECYWLTNWIETILVQSWYPITVATNSREQKKILAKYLLETSGNLDGLEYKLHDFGYRGVSSQETAGIGASAHLVNFKGTDTVAGLALIKKYYGTKDPVPGYSVPAAEHSTITAWGKDHEKDAFEHIVTQFSSVPVSVVSDSYDIYNACEKIWGEDLRHLIVSRSTQAPLIIRPDSGNPLDTVLKVLEILGKKFPVTENSKGYKLLPPYLRVIQGDGVDINTLQEIVEGMKQKMWSIENIAFGSGGGLLQKLTRDLLNCSFKCSYVVTNGLGINVFKDPVADPNKRSKKGRLSLHRTPAGNFVTLEEGKGDLEEYGQDLLHTVFKNGKVTKSYSFDEIRKNAQLNIELEAAHH
Regarding B1, the Kd in experiment [1] turned out to be 5000 nM; in experiment [2], 2 nM; in experiment [3] it was 600 nM.

What is called Kd is the equilibrium constant for the complex coming apart.

The values are drawn from paper PMC3320877 (2012).
